Patent publication US20080113343A1

Biological target: human sPLA2-IIA (Type IIA secreted phospholipase A2) (human) (UniProt P14555)
Experiment: cell-based or functional assay

human sPLA2-IIA (Type IIA secreted phospholipase A2) (human), sequence (P14555 21-144 limits assumed): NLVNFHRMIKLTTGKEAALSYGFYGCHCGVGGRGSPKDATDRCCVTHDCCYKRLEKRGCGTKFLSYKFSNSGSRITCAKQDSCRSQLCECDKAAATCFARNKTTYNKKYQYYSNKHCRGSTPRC

- smallest effective dose, proliferation of unstimulated LNCaP and PC-3 cells (MTS assay, doses 1-100 nM): 1 nM
Substance: c(2NapA)LS(2NapA)R (cyclic (2Nap)LS(2Nap)R) (peptide)
